Legend:
[1] = biological target: T1, PTP-NP (on cells transfected with PTP-NP) (mouse, UniProt P80560 28-1001); experiment: NP-AP probe on cells transfected with PTP-NP (data not shown)
T1 construct: also called PTP-NP type 1; neural and pancreatic receptor protein tyrosine phosphatase
T1 chain: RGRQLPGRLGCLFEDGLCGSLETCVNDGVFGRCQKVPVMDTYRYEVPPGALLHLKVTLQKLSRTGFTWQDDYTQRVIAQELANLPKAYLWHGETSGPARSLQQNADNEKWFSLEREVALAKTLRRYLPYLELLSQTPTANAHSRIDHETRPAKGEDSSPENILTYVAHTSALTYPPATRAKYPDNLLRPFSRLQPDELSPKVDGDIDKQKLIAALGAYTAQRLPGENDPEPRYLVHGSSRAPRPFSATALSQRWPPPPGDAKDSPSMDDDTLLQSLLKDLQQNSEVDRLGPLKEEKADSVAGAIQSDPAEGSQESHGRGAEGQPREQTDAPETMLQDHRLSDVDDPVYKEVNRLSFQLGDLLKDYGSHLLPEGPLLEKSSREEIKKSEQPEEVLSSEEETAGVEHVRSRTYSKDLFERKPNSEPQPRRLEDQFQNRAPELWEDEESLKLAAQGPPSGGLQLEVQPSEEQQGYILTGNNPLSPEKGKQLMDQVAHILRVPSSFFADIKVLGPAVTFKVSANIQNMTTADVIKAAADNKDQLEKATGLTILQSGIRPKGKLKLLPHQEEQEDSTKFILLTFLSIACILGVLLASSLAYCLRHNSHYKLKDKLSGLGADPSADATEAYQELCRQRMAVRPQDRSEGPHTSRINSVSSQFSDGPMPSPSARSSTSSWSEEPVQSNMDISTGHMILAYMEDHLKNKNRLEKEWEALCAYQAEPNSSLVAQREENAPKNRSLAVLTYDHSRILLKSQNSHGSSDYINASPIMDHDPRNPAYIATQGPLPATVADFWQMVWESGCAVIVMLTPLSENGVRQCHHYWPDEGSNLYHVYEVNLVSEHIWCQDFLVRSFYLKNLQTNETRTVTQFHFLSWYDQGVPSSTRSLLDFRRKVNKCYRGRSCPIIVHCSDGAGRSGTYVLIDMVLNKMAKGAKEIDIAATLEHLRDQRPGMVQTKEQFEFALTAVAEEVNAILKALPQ

[2] = biological target: T2, PTP-NP extracellular domain marked with an immunoglobulin tag (mouse, UniProt P80560 28-600); experiment: in vitro binding of the two differently tagged extracellular domains (data not shown)
T2 construct: not shown: immunoglobulin tag
T2 chain: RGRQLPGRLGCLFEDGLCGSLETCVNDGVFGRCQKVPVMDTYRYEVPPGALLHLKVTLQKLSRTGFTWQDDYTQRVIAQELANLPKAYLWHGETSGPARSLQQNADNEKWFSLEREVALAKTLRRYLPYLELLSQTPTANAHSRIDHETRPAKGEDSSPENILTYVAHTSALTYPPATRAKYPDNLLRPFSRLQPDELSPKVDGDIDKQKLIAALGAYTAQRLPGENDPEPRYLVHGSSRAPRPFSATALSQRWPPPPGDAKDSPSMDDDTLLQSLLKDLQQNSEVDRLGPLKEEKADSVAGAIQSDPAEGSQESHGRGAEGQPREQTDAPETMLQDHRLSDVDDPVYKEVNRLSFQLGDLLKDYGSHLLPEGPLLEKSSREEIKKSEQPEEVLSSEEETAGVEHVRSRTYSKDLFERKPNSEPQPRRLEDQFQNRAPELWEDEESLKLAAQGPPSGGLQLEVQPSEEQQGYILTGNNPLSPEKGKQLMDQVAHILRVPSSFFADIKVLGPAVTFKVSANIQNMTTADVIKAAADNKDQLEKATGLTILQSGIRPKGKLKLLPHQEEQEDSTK

binding result [1]: no binding
binding result [2]: no binding
B1: NP-AP fusion protein (extracellular domain of PTP-NP fused to an alkaline phosphatase tag) (other)
chain: T2 chain
notes: Used as unpurified supernatant of transfected COS cells; also called NP-AP probe; not shown: limits and

Reference: US6399326 (Harvard, dated 2002)
